B1: ERO1-like protein alpha (Homo sapiens), Q96HE7 (parent)
chain: MGRGWGFLFGLLGAVWLLSSGHGEEQPPETAAQRCFCQVSGYLDDCTCDVETIDRFNNYRLFPRLQKLLESDYFRYYKVNLKRPCPFWNDISQCGRRDCAVKPCQSDEVPDGIKSASYKYSEEANNLIEECEQAERLGAVDESLSEETQKAVLQWTKHDDSSDNFCEADDIQSPEAEYVDLLLNPERYTGYKGPDAWKIWNVIYEENCFKPQTIKRPLNPLASGQGTSEENTFYSWLEGLCVEKRAFYRLISGLHASINVHLSARYLLQETWLEKKWGHNITEFQQRFDGILTEGEGPRRLKNLYFLYLIELRALSKVLPFFERPDFQLFTGNKIQDEENKMLLLEILHEIKSFPLHFDENSFFAGDKKEAHKLKEDFRLHFRNISRIMDCVGCFKCRLWGKLQTQGLGTALKILFSEKLIANMPESGPSYEFHLTRQEIVSLFNAFGRISTSVKELENFRNLLQNIH

Variants of B1 are the subject of the assay. The settings on record: with pdia1_human P4HB.
In the case of MGRGWGFLFGLLGAVWLLSSGHGEEQPPETAAQRCFCQVSGYLDDCTCDVETIDRFNNYRLFPRLQKLLESDYFRYYKVNLKRPCPFWNDISQSGRRDCAVKPCQSDEVPDGIKSASYKYSEEANNLIEECEQAERLGAVDESLSEETQKAVLQWTKHDDSSDNFCEADDIQSPEAEYVDLLLNPERYTGYKGPDAWKIWNVIYEENCFKPQTIKRPLNPLASGQGTSEENTFYSWLEGLCVEKRAFYRLISGLHASINVHLSARYLLQETWLEKKWGHNITEFQQRFDGILTEGEGPRRLKNLYFLYLIELRALSKVLPFFERPDFQLFTGNKIQDEENKMLLLEILHEIKSFPLHFDENSFFAGDKKEAHKLKEDFRLHFRNISRIMDCVGCFKCRLWGKLQTQGLGTALKILFSEKLIANMPESGPSYEFHLTRQEIVSLFNAFGRISTSVKELENFRNLLQNIH [C94S], the “effect of a mutation on the interaction” value is reported as “disrupting interaction”.
